Reference: publication PMC11874374

How the values were obtained:
[1] = biological target: histidine-tagged JAM-A (human) (UniProt Q9Y624); assay: non-reducing gel electrophoresis
[2] = biological target: recombinant human JAM-A (Junctional Adhesion Molecule-A) (human) (UniProt Q9Y624); assay: non-reducing gel electrophoresis

Row | Substance | stoichiometry N [1] | stoichiometry N [2]
1 | histidine-tagged JAM-A (from UniProt Q9Y624 28-299) (natural protein) | 2 | 
2 | recombinant human JAM-A (Junctional Adhesion Molecule-A) (from UniProt Q9Y624 28-299) (natural protein) |  | 3
